Reference: patent US20170342169A1

How the values were obtained:
mouse 4-1BB (mouse) = mouse 4-1BB (mouse) (UniProt P20334); assay: SPR
[1] = target: human mesothelin on cells (SN12C, OVCAR3, SW1990 endogenous; HEK293 transfectants) (human) (UniProt Q13421); assay: FACS, SN12C cells (CA125-)
[2] = target: human mesothelin on cells (SN12C, OVCAR3, SW1990 endogenous; HEK293 transfectants) (human) (UniProt Q13421); assay: FACS, OVCAR3 cells (CA125+)

Sequence of mouse 4-1BB (mouse) (P20334 24-187): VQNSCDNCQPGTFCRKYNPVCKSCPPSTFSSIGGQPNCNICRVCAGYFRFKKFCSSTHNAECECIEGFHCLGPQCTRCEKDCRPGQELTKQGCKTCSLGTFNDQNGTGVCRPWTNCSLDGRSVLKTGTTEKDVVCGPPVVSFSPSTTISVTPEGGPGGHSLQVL
Sequence of human mesothelin on cells (SN12C, OVCAR3, SW1990 endogenous; HEK293 transfectants) (human) (Q13421 other isoform, or with tags, fused parts or gaps limits assumed): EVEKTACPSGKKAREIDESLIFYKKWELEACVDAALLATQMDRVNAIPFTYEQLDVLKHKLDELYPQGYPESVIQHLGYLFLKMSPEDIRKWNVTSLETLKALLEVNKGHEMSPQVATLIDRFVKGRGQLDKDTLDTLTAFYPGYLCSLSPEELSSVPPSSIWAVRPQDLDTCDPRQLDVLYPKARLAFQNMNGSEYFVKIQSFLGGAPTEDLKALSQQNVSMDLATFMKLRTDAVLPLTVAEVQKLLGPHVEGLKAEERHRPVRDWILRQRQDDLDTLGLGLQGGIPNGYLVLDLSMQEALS

Row | Substance | Kd (mouse 4-1BB (mouse)) [nM] | koff (mouse 4-1BB (mouse)) [s⁻¹] | kon (mouse 4-1BB (mouse)) [M⁻¹ s⁻¹] | Maximum binding (MFI) [1] [MFI] | Maximum binding (MFI) [2] [MFI]
1 | 1D8 (antibody) | 3.9 | 0.008 | 2.1e+06 |  | 
2 | HuIgG1 control (antibody) |  |  |  | 40 | 70
